Reference: patent US12070483B2, “Compositions and methods for treatment of acute lung injury” (THE TRUSTEES OF THE UNIVERSITY OF PENNSYLVANIA, priority 2018, dated 2024)

Legend:
[1] = tested on: mechanically ventilated mice; experiment: Ventilation-induced lung injury (VILI); type: in vivo, mouse; conditions: PIP-2 2 ug/g in liposomes IT at start of 6 h mechanical ventilation
Method: FIG. 13: Effect of PIP-2 on ventilation-induced lung injury (VILI). Anesthetized mice were mechanically ventilated for 6 h with tidal volume 12 ml/Kg body weight with a respiratory rate 120/min, and 2 cm H2O positive end-expiratory pressure (PEEP). […] Control represents values for normal (non-ventilated) lungs. % Protection was calculated as in Table 1. Results are mean±SE for n=4. *P<0.05 for VILI+PIP vs VILI.

aiPLA2 activity = target: T1, aiPLA2 activity (Homo sapiens, UniProt P30041); experiment: Inhibitory activity of PIP-2 after storage as dry powder at room temp.; type: biochemical; conditions: for aiPLA2 Activity: PIP-2 stored as dry powder at room temp.
T1 sequence (P30041 1-224): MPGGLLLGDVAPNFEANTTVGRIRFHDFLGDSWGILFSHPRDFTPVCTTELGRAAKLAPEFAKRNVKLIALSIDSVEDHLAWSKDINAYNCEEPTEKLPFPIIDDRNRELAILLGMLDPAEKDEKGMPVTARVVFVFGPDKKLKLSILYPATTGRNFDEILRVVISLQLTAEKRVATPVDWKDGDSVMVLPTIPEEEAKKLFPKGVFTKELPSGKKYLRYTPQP
Method: aiPLA2 activity was measured at intervals to determine how long the peptide could maintain its efficacy as an inhibitor of aiPLA2 activity. The peptide was stable for the 4 months of observation.

aiPLA2 activity of Prdx6 = target: T2, aiPLA2 activity of Prdx6 (Mus musculus, UniProt O08709); experiment: Lung aiPLA2 activity after IT LPS; type: in vivo; conditions: PIP-2 with IT LPS 5 μg/g; 6, 12 and 24 h
T2 construct: from tissue; host or cells: mouse lung homogenate (wild type mice)
T2 sequence (O08709 1-224): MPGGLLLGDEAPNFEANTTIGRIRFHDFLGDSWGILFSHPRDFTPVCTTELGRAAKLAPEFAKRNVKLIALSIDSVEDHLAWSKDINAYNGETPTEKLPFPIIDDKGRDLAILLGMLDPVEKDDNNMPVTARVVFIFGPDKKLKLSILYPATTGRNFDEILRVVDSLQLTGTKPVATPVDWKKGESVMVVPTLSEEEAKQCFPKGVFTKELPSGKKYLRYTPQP
Method: FIGS. 4A and 4B: Phospholipase A2 of Prdx6 (aiPLA2) was measured by the liberation of palmitic acid from dipalmitoylphosphatidylcholine under acidic conditions (pH 4) in the absence of Ca^2+. FIG. 4A: The effect of increasing concentration of PIP-2 on the aiPLA2 activity of recombinant human Prdx6. FIG. 4B: The effect of LPS and PIP-2 treatment on aiPLA2 activity of mouse lungs. Mice (n=3 for each condition) were treated with intratracheal LPS (2 μg/g body wt) without or with PIP-2 (2 μg/g body weight) in liposomes. Animals were sacrificed at 6,12, or 24 h after receiving LPS. Lungs were cleared of blood and homogenized.
FIGS. 9A and 9B: PIP-2 inhibits the increased lung aiPLA2 activity and increased ROS generation after LPS administration. LPS (5 μg/g body weight) was administered by intratracheal (IT) instillation along with liposomes alone (labeled as LPS) or with PIP-2 in liposomes (labeled as +PIP-2). Control was liposomes alone without LPS (labeled as control). Mice were sacrificed at 6, 12, or 24 h after LPS and lungs were perfused in situ for 15 min with saline solution containing the fluorophore difluorofluoroscein diacetate (DFF-DA). Lungs then were homogenized and assayed for: FIG. 9A: aiPLA2 activity; FIG. 9B: fluorescence of the lung homogenate as an index of ROS production. […]

Prdx6 = target: T3, Prdx6 (Mus musculus, UniProt O08709); conditions: PIP-2 2 μg/g in liposomes, for at least 24 h; shown previously; cited from earlier work
T3 construct: Lungs were harvested at intervals between 4 and 72 h after the PIP-2 administration, homogenized, and analyzed for Prdx6-PLA2 activity; from tissue; host or cells: mouse lung homogenate (wild type mice)
T3 sequence (O08709 1-224): T2 sequence (O08709 1-224)

[2] = tested on: mice, intraperitoneal LPS; experiment: Intraperitoneal LPS (15 μg/g) model of ALI with systemic sepsis: survival; conditions: LPS 15 μg/g IP
Method: LPS (15 mg/g body wt) was given to all mice either by: FIG. 7A: intratracheal (IT) or FIG. 7B: intraperitoneal (IP) injection. PIP-2 in liposomes or placebo (liposomes alone) was administered intravenously (IV) 12 h after LPS (this is treatment time zero) and then at 12 or 24 h intervals for a total of 5 doses as indicated by the arrows. FIG. 7A: PIP-2 at 2 μg/g body wt; N=14 for each group. FIG. 7B: PIP-2 at 2 or 20 μg/g body wt.; Placebo group, n=8; PIP-2 2 mg group, n=7; PIP-2 20 mg group, n=10.
Anesthesized mice were administered LPS (either 5 or 15 μgig body weight) in 20 μl saline that was instilled into the lung through an endotracheal catheter placed at the level of the tracheal carina. […] PIP-2 in liposomes was suspended in 20 μl saline for IV or IT injection. For studies to evaluate the effect of PIP-2 at zero time, LPS administration was followed by liposomes±PIP-2 also given by IT instillation. For studies to evaluate the effect of PIP-2 administered at later times after LPS, the liposomes±PIP-2 were given by injection into a retinal artery. This shift in route of administration was used to minimize damage to the mouse trachea that could occur with repeated tracheostomy and lead to untoward effects on the lung. […] We gave the second dose of PIP-2 at 12 h to be certain of maximal coverage and then went to every 24 h for PIP-2 administration. For the model of sepsis, LPS (15 μg/g body wt.) in 20 μl saline was injected intraperitoneally and mice were treated with IV PIP-2 at either 2 or 20 μg/g body wt; note that the initial dose of PIP-2 for this sepsis model was IV, not IT. We used the same times of PIP-2 administration in the sepsis model as were used for the IT LPS model. After recovery from anesthesia, all mice were maintained in the vivarium with access ad lib to food and water.
We next evaluated the effect of PIP-2 in mice given LPS (15 μg LPS/g body wt.) by the intraperitoneal route as a model for ALI associated with systemic sepsis.

LHDFRHQIL (Inhibitory peptide.) [PIP-2]
effect on ventilation-induced lung injury [1]: protected against lung injury
aiPLA2 Activity (aiPLA2 activity; 0 days, no PIP-2 100): 29.7 ± 2.9 nmol/min/mg prot.
aiPLA2 Activity (aiPLA2 activity; 30 d): 31.1 ± 1.3 nmol/min/mg prot.
aiPLA2 Activity (aiPLA2 activity; 45 d): 31.8 ± 1.0 nmol/min/mg prot.
aiPLA2 Activity (aiPLA2 activity; 60 d): 32.8 ± 0.9 nmol/min/mg prot.
aiPLA2 Activity (aiPLA2 activity; 120 d, no PIP-2 at 120 d 103): 31.9 ± 2.4 nmol/min/mg prot.
stability as dry powder (aiPLA2 activity; room temp., 4 months of observation): stable
aiPLA2 activity of lung after LPS (aiPLA2 activity of Prdx6): dramatic decrease
inhibition of lung aiPLA2 activity (Prdx6): ~90%
mice fully recovered ([2]; PIP-2 2 μg/g IV): 43%
survival at 36 h after LPS ([2]; PIP-2 2 μg/g IV, placebo 100% dead by 48 h): 86%
long term survival rate ([2]; PIP-2 20 μg/g IV): 70%
